Experiment [1] has as its target human TNFR1 (soluble recombinant protein) (human) (UniProt P19438). Description: phage ELISA, plate coated with 1 nM TNFRI, anti-M13-HRP; phage pre-treated 1 h room temp with 1 mg/ml trypsin; phage input 1.13E+10. (In general: In an ELISA, binding on a coated surface is turned into a signal by an enzyme label.)
For experiment [2] the target is unchanged. Description: phage ELISA, plate coated with 1 nM TNFRI, anti-M13-HRP; phage pre-treated 1 h room temp with 10 ug/ml trypsin; phage input 1.13E+10.
For experiment [3] the target is unchanged. Kind of experiment: phage ELISA, plate coated with 1 nM TNFRI, anti-M13-HRP; phage pre-treated 1 h room temp with 100 ug/ml trypsin; phage input 1.13E+10.

Sequence of human TNFR1 (soluble recombinant protein) (human) (P19438 41-201 limits assumed): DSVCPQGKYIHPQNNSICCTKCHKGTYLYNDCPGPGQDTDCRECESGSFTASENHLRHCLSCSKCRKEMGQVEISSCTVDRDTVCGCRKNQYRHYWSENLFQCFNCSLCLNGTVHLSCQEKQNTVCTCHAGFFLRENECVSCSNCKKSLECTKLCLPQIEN

In the case of DOM1h-131, the phage ELISA signal (read-out not named) was determined as 0.183 in experiment [1], 0.86 in experiment [2] and 0.284 in experiment [3].
